Measurements published in patent publication US20170035908A1 (published 2017).

Biological target: T1, PAM4 antigen (pancreatic cancer mucin, CaPan1 human pancreatic tumor)
T1 construct: also called CaPan1 Ag; CaPan1 antigens
Test: ELISA on target mucin antigen (FIG. 9)

B1: humanized PAM4 antibody (antibody, V domains shown)
VH: QVQLQQSGAEVKKPGASVKVSCEASGYTFPSYVLHWVKQAPGQGLEWIGYINPYNDGTQYNEKFKGKATLTRDTSINTAYMELSRLRSDDTAVYYCARGFGGSYGFAYWGQGTLVTVSS
VL: DIQLTQSPSSLSASVGDRVTMTCSASSSVSSSYLYWYQQKPGKAPKLWIYSTSNLASGVPARFSGSGSGTDFTLTISSLQPEDSASYFCHQWNRYPYTFGGGTRLEIKR
notes: also called hPAM4; hPAM4 IgG
EC50: 1.31 nM
